Measured values published in US20190233485A1 (LEIDEN UNIVERSITY MEDICAL CENTER, published 2019).

What was measured:
[1] = target: T1, Bob1 (B cell Oct binding protein 1, gene POU2AF1) peptide on HLA-A*02:01 (human); assay: multimer staining
T1 peptide: YALNHTLSV

[2] = target: T2, Bob1 (B cell Oct binding protein 1, gene POU2AF1) peptide on HLA-B*07:02 (human); assay: multimer staining
T2 peptide: APAPTAVVL

[3] = target: T3, HLA-B*0702 (human); assay: polypeptides eluted from HLA of HLA-typed EBV-LCLs (HLA elution database); allele as in Table 1
T3 construct: HLA class I molecule on HLA-typed EBV-LCLs from which the polypeptides were eluted; also called HLA-B7

[4] = target: T4, HLA-A*0201 (human); assay: as above
T4 construct: HLA class I molecule on HLA-typed EBV-LCLs from which the polypeptides were eluted; also called HLA-A2

Row | Binder | binding result [3] | also measured
1 | TCR of T cell clone 3C10 (TCR, V domains shown) Valpha: GENVEQHPSTLSVQEGDSAVIKCTYSDSASNYFPWYKQELGKGPQLIIDIRSNVGEKKDQRIAVTLNKTAKHFSLHITETQPEDSAVYFCAASTGGGYSTLTFGKGTMLLVSP Vbeta: DAGVIQSPRHEVTEMGQEVTLRCKPISGHDYLFWYRQTMMRGLELLIYFNNNVPIDDSGMPEDRFSAKMPNASFSTLKIQPSEPRDSAVYFCASSGQGITLAGANVLTFGAGSRLTVL | – | binding result [1]: recognises
2 | TCR of T cell clone 4G11 (TCR-4G11) (TCR, V domains shown) Valpha: GENVEQHPSTLSVQEGDSAVIKCTYSDSASNYFPWYKQELGKGPQLIIDIRSNVGEKKDQRIAVTLNKTAKHFSLHITETQPEDSAVYFCAASKGSSNTGKLIFGQGTTLQVKP Vbeta: DTEVTQTPKHLVMGMTNKKSLKCEQHMGHRAMYWYKQKAKKPPELMFVYSYEKLSINESVPSRFSPECPNSSLLNLHLHALQPEDSALYLCASSHGPASYEQYFGPGTRLTVT | – | binding result [2]: recognises
3 | APALPGPQF (Bob1-derived peptide from the HLA elution set) [BOB1197 peptide APALPGPQF] | binds | –
4 | APARPYQGV (Bob1-derived peptide from the HLA elution set) [BOB114 peptide APARPYQGV] | binds | –
5 | YALNHTLSV (Bob1-derived peptide from the HLA elution set) [BOB1245 peptide YALNHTLSV] | – | binding result [4]: binds
6 | APAPTAVVL (Bob1-derived peptide from the HLA elution set) [BOB144 peptide APAPTAVVL] | binds | –
